The values below come from the DeepSol protein solubility set.

This data set can be described thus: soluble on expression in E. coli; label from the status in PepcDB or PDB records.
With “MDAAIKKIPYGMTDFERIILENYYYVDKTQYIAKVEKVTSFFFFVRPRRFGKSLFLNMLGLYYDINQKDKFEKIFGNLYIGKHPTPDRNKYLVLTLNFSSVAANMDRLEETFNTYCKIVMDGFAERNAHLLGKEAVEKLHELKTGDALLGSLCQSAQNKGQKIYLILDEYDNFANNILVDYGNKRYRSITHGSGFFRSFLKVVKDYSSSVIERIFLTGVSPVTMDDLTSGFNIADNYSSSPIFNNMMGFNEQEVRTLIDYYKSYRELPHTTDELITIMKPWYDNYCFAMKALKEPSMYNSDMVLYFMNHYMLNEDIPDNMLDANIRTDYNKLRHLIHVDKTFGENASVVQEIVEKGSTTGIIANSFPAEDIIKPENFKSLLYYYGMLTISGMEMGEPILSVPNWAVREQLYGYMADIYKDSADLYLETDKLVDRMKRMAYKGEWENCFTYIADRLNAQSSVRDFIEGEAYVKTFILAYLGLTHYYIARPEYESNKGYADIFLQPRLLQLPDMVYSYCIEVKYAKRDASDTEIEKLLSNAKIQLKQYAASEWIHQDKGTTELKSIALVFQGWKLVRVEEV”, the “soluble on expression in E. coli” value is “not soluble”.

“MAGDPMSRRVIRTYKLAVPGHLSQTCEELNRTAARIYNKTMSLVRKIHQKKGFWLSWPTADKYILRWAENIKIHVHSKQAFVQLYFQALKGYFKATKKNPDAKPPHKKKRYLPFIWKESAVKLLPDGTLRLSLGKERESFVVQTPLKPPLRIKQTRLVFEDGYYLHLAIEVEIEEKNAGSGVMAVDLGVLRPITCFDGKEVISYHGGVLSSVLRYRNKRLASFQSAIAECKKGSRRYNKLVRAKKRVLRRLRNQINDIMHKITSNFIGLCLRKQIGTIVIGDVTGIRERADYSDNANQKIHQWQFRKLIEMIRYKAEQFGIEVKLISEANTSKTCPVCGAKNNPNGRRYHCKACGFEYHRDGVGAINIWKRYPGTGQVVAGLAPVRGVRFHPHLCGHGASLAPWKVALEHHHHHH”: the “soluble on expression in E. coli” value was “not soluble”.

“MRIVYCISGTCNSGGMERVLSNKANYLAAHGYEVTIVTTDQRGRRPFFALDGRIECVDLDVNYETNNGKSFFNKLVHYPFKQLKHKRRLTKVLNLIKPDITVSMFCNDVAFLPSIQDGSKKVLEVHFSRFKRLQYDRKGLWRLADKWRNRNEQRQVACFDKFVVLTHEDKDYWEGHANIEVIPNAQTFACDVPAALESKTVVAVGRYTYQKGFDMLLRAWRRVCDSIDDWQLHIVGEGEMKESLQQQILDLSLEDRVELCPATSDIQSVYREASVLVLSSRYEGFGMVLLEAQTAGVPTVSFDCKCGPSDIVADGVTGYLVPANDIPALAEKLLVLMRDETLRKQMGRNAFADASRFSEKAVMQRWTDLFENFR”: the “soluble on expression in E. coli” value was “not soluble”.

Consider “MDWGRFVEEKVREIRETVGDSKAIIALSGGVDSSTAAVLAHKAIGDRLHAVFVNTGFLRKGEPEFVVKTFRDEFGMNLHYVDAQDRFFSALKGVTDPEEKRKIIGRVFIEVFEEVAKKIGAEYLIQGTIAPDWIESQGKIKSHHNVGGLPEKLNLKLIEPLRDLYKDEVRELAKFLGLPEKIYNRMPFPGPGLAVRVIGEVTPEKIRIVREANAIVEEEVERAGLRPWQAFAVLLGVKTVGVQGDIRAYKETIAVRIVESIDGMTANAMNVPWEVLQRIAFRITSEIPEVGRVLYDITNKPPATIEFE”, for which the “soluble on expression in E. coli” value was “soluble”.

On to “SSENQKEVSPPQAISVKSEASSSIFSKPISTSSPAGLAAAQRVTPGKLSTLLLEMGPLAIRHITQTLCLDIPCFKDLSSSKQRRLIMSAMESGDKEKSVVFEKIGWGQWSAKRVDPANFDKELEATNFANAKVKDLISQESQRRKSNNSNSNSGGKVEMPMKVEHNITNIDGATTPPTAVASTTIPVNIKRSKSPLAAANVVYIDENALASEDEDEEFDEDDHHLHYQNKSRNSSNNFGKSSNGDPYSFGRRRSQVVFADSTPENIEHEIIAQKIRPLLRNRRRSSIKPHTPFISKLNTHQDSSYLSPNTTSTTTPSNNNSNSNQAKIDLEKLTATSEPTSRRASRLSVSKESSIRSTLFPNKNYLIVTTNPNSKATSVSTSPKLEEQMNVSSNPIVLSDKEKHRVASQHLNGESSPQLVPHSHHQPHSDTDEEDWESIGAASLRNNSLAPNIDSVASSTNGVVSPKPTNPSFTNSQNGDIEPPLQHDQQKHEQQPRNGEDNSAAFLLMSLKS”, for which the “soluble on expression in E. coli” value was “soluble”.

As to “MGNVMLSKRKSGSMADDTGEHPVCFNCTLRVDQTIHVKCFECPLRICILCFQCGAESPPHRRGHNYELVKPTSNPEAMSWTHEDEFELLKAAHKFKMGNWGEIAESIGRGRKDGHNCKDYFEKHFVRGWIGQFSIKSSSWDRIKYGMYINQTLDSVLQKNCLESTERMLLIRDAVRASGESWDENDPKLAIKVQQVLEQYVQKVIDGDIETKYERPKFLTNQYETELSPDDCDPDNERDMKSKRSVKQEINTDDSDNDNSPGPSSSCRKKGPPSPKRRKTTRVMRESSSDSDDDKSQASDKDTYHGMERETEEEDPPSAFETAQEFDTEDEEEEKKPKRGTASSSKRRKRRRMWVSKKDRRLHEFRKKMNQEVKELRSAYPRLLHESGVSKSETRPKMRRSDELKILGYNNEREELECEWFNEAEQLISRLTISATEPQKDQRLDMENDIKFARLRHYVRLLGIRKAKRNTVLEHDKINEFMKFYQEACYAAAKRPVSQQEIMDSRTEKEKLLAMTQQFLTRDEYRSLRASIERIDNVVERIEVLQDLQKNGETTLKNAPVERKSKKKMRKIDCEQKKKIATEWSKFKKWHTEGWE”, the “soluble on expression in E. coli” value was “not soluble”.

“MEALRASYGDSSSDSDTDDLSPASPVTANSGEKDSISLPPPPLALLDSIVSTGSLDFFSTEPGVRVRNFPHVDGNYALHVYVPVCIPPLPKKEIVCFLKKVASVVPHLHLVEADVPLSILCKDDQKFERALGREFHISLGRNVPLRVHQINSVISMLRQKLQLQKRYLIDFNKWEVFVNDDHTRSFLSLEITTSGLSEISKQIDAVNEVYKLHNLPEFYKDPRPHISLVWALGDIRTSLKGAVDVELRKLRAGGCVQNRIFTSKFCGIECKIGNKTHKICKLPDE”: the “soluble on expression in E. coli” value is “soluble”.

Turning to “VRPAIKVGLSTASVYPLRAEAAFEYADRLGYDGVELMVWGESVSQDIDAVRKLSRRYRVPVLSVHAPCLLISQRVWGANPILKLDRSVRAAEQLGAQTVVVHPPFRWQRRYAEGFSDQVAALEAASTVMVAVENMFPFRADRFFGAGQSRERMRKRGGGPGPAISAFAPSYDPLDGNHAHYTLDLSHTATAGTDSLDMARRMGPGLVHLHLCDGSGLPADEHLVPGRGTQPTAEVCQMLAGSGFVGHVVLEVSTSSARSANERESMLAESLQFARTHLLR”, the “soluble on expression in E. coli” value is “not soluble”.

Regarding “MRGSHHHHHHGSSEPLILDAPNADACIIWLHGLGADRTDFKPVAEALQMVLPSTRFILPQAPSQAVTVNGGWVMPSWYDILAFSPARAIDEDQLNASADQVIALIDEQRAKGIAAERIILAGFSQGGAVVLHTAFRRYAQPLGGVLALSTYAPTFDDLALDERHKRIPVLHLHGSQDDVVDPALGRAAHDALQAQGVEVGWHDYPMGHEVSLEEIHDIGAWLRKRL”, the “soluble on expression in E. coli” value was “soluble”.

With “MIEWQDLHHSELSVSQLYALLQLRCAVFVVEQNCPYQDIDGDDLTGDNRHILGWKNDELVAYARILKSDDDLEPVVIGRVIVSEALRGEKVGQQLMSKTLETCTHHWPDKPVYLGAQAHLQNFYQSFGFIPVTEVYEEDGIPHIGMAREVIQA”, the “soluble on expression in E. coli” value is reported as “soluble”.

For the sequence “MGSDKIHHHHHHMEHLLEVNNLSVSFKVEEGEVQAVRNVSFNLKKGETLAIVGESGCGKSVLCKSLMRILPYNGYIKNGEVLLKSSDLVKKSEKEMEDIRGKNISMIFQDPMTSLNPTISIGKQIAEAVIIHQGISKSEAKKRAIELIELVGIDNPEKRFKQFPHHFSGGMRQRIVIAIALACNPDVLIADEPTTALDVTIQAQIIDLIKDLQHKIGLSIIFITHDLGVVATIADRIAVMYAGKIVEIGTVEDIFYDPRHPYTWGLLGSLPTLDSQDDYLYNIPGMPPNLLNPPKGDAFAIRNKNALKIDYEKEPPMFKINDTHSAATWLLHPDAPEVDVPVRVNCGRVISNE”, the “soluble on expression in E. coli” value is on record as “not soluble”.

Consider “MSLTELYAKSDLEKIKETLPGWQLDSFNYLNEKIGDKENKFPCIPGRQAFLSDQLRIAFVGDPRNPETAKELAPLLTRYGTISRETGKYASLTVIFHTPEELLTDYKIEDYESLFWQLLNSLSMEDPADWPDDIPENPDNFQWEYCFNGEPYFVLCATPAHSKRKSRSFPYFMLTFQPRWVFEDLNDTTAFGRNMSKQIRKRLEAYDEVPIHPHLGWYGKKDNLEWKQYFLRDDENQVSQCPFMKMKNLFKKERSDEGHHHHHH”, for which the “soluble on expression in E. coli” value is “soluble”.

Turning to “HDTILFFSNKGKVYRAKGYEIPEYGRTAKGIPIINLLEVEKGEWINAIIPVTE”, the “soluble on expression in E. coli” value is listed as “not soluble”.
